Measured values from US20170306033A1 (Amgen, published 2017).
Residue numbers refer to the chain shown, from its start.

T1: human PAC1 receptor (human, UniProt P41586 21-468)
T1 sequence: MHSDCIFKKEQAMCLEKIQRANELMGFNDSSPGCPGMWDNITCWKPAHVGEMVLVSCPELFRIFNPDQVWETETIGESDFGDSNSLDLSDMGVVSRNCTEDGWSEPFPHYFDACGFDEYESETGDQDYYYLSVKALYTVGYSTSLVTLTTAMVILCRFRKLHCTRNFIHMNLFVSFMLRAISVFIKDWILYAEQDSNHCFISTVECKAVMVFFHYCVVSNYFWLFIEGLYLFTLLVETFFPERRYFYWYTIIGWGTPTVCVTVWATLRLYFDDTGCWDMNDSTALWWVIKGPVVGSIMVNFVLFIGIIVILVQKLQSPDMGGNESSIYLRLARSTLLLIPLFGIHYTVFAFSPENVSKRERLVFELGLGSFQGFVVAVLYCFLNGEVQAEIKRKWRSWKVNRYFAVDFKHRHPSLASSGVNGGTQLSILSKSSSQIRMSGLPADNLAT

B1: iPS:327733 (bispecific antibody, human IgG1, kappa, lambda, N297G)
light 1: DIQLTQSPSFLSASVGDRVTITCRASQSIGRSLHWYQQKPGKAPKLLIKYASQSLSGVPSRFSGSGSGTEFTLTISSLQPEDFATYYCHQSSRLPFTFGPGTKVDIKRTVAAPSVFIFPPSDEQLKSGTASVVCLLNNFYPREAKVQWKVDNALQSGNSQESVTEQDSKDSTYSLESTLTLSKADYEKHKVYACEVTHQGLSSPVTKSFNRGEC
heavy 1: not shown
light 2: QSVLTQPPSVSAAPGQKVTISCSGSSSNIGNNYVSWYQQLPGTAPKLLIYDNNKRPSGIPDRFSGSKSGTSATLGITGLQTGDEADYYCGTWDSRLSAVVFGGGTKLTVLGQPKANPTVTLFPPSSEELQANKATLVCLISDFYPGAVTVAWKADGSPVKAGVETTKPSKQSNNKYAAKSYLSLTPEQWKSHRSYSCQVTHEGSTVEKTVAPTECS
heavy 2: QVQLVESGGGVVQPGRSLRLSCAASGFTFSSFGMHWVRQAPGKGLEWVAVISFDGSIKYSVDSVKGRFTISRDNSKNTLFLQMNSLRAEDTAVYYCARDRLNYYESSGYYHYKYYGMAVWGQGTTVTVSSASTKGPSVFPLAPSSKSTSGGTAALGCLVKDYFPEPVTVSWNSGALTSGVHTFPAVLQSSGLYSLESVVTVPSSSLGTQTYICNVNHKPSNTKVDKKVEPKSCDKTHTCPPCPAPELLGGPSVFLFPPKPKDTLMISRTPEVTCVVVDVSHEDPEVKFNWYVDGVEVHNAKTKPCEEQYGSTYRCVSVLTVLHQDWLNGKEYKCKVSNKALPAPIEKTISKAKGQPREPQVYTLPPSRKEMTKNQVSLTCLVKGFYPSDIAVEWESNGQPENNYKTTPPVLKSDGSFFLYSKLTVDKSRWQQGNVFSCSVMHEALHNHYTQKSLSLSPGK
B2: iPS:326663 (bispecific antibody, human IgG2, kappa)
light 1: B1 light 1
heavy 1: QVQLVESGAEVVKPGASVKVSCKASGFTFSRFAMHWVRQAPGQGLEWMGVISYDGGNKYYAESVKGRVTMTRDTSTSTLYMELSSLRSEDTAVYYCARGYDVLTGYPDYWGQGTLVTVSSASTKGPSVFPLAPCSRSTSESTAALGCLVKDYFPEPVTVSWNSGALTSGVHTFPAVLQSSGLYSLKSVVTVPSSNFGTQTYTCNVDHKPSNTKVDKTVERKCCVECPPCPAPPVAGPSVFLFPPKPKDTLMISRTPEVTCVVVDVSHEDPEVQFNWYVDGVEVHNAKTKPREEQFNSTFRVVSVLTVVHQDWLNGKEYKCKVSNKGLPAPIEKTISKTKGQPREPQVYTLPPSREEMTKNQVSLTCLVDGFYPSDIAVEWESNGQPENNYDTTPPMLDSDGSFFLYSDLTVDKSRWQQGNVFSCSVMHEALHNHYTQKSLSLSPGK
light 2: EIVLTQSPGTLSLSPGERATLSCRASQSVSSGYLTWYQQKPGQAPRLLIYGASSRATGIPDRFSGSGSGTDFTLTISRLEPEDFAVYYCQQYGNSLSRFGQGTKLEIKRTVAAPSVFIFPPSDEQLKSGTASVVCLLNNFYPREAKVQWKVDNALQSGNSQESVTEQDSKDSTYSLKSTLTLSKADYEKHKVYACEVTHQGLSSPVTKSFNRGEC
heavy 2: QVQLVESGGGVVQPGRSLRLSCAASGFTFSSYGMHWVRQAPGKGLEWVAVIWYDGSNKYYADSVKGRFIISRDKSKNTLYLQMNSLRAEDTAVYYCARAGGIAAAGLYYYYGMDVWGQGTTVTVSSASTKGPSVFPLAPCSRSTSESTAALGCLVKDYFPEPVTVSWNSGALTSGVHTFPAVLQSSGLYSLESVVTVPSSNFGTQTYTCNVDHKPSNTKVDKTVERKCCVECPPCPAPPVAGPSVFLFPPKPKDTLMISRTPEVTCVVVDVSHEDPEVQFNWYVDGVEVHNAKTKPREEQFNSTFRVVSVLTVVHQDWLNGKEYKCKVSNKGLPAPIEKTISKTKGQPREPQVYTLPPSRKKMTKNQVSLTCLVKGFYPSDIAVEWESNGQPENNYKTTPPMLKSDGSFFLYSKLTVDKSRWQQGNVFSCSVMHEALHNHYTQKSLSLSPGK
B3: iPS:327728 (bispecific antibody, human IgG1, kappa, lambda, N297G)
light 1: not shown
heavy 1: not shown
light 2: B1 light 2 with G75A
heavy 2: B1 heavy 2 with E105D, E370K
B4: iPS:327736 (bispecific antibody, human IgG1, kappa, lambda, N297G)
light 1: not shown
heavy 1: not shown
light 2: B1 light 2 with G103K
heavy 2: B1 heavy 2 with G44E
B5: iPS:327724 (bispecific antibody, human IgG1, kappa, lambda, N297G)
light 1: not shown
heavy 1: not shown
light 2: B1 light 2 with G75A, G103K
heavy 2: B1 heavy 2 with G44E, E105D
B6: iPS:327725 (bispecific antibody, human IgG1, kappa, lambda, N297G)
light 1: B1 light 1 with P100E
heavy 1: not shown
light 2: B1 light 2 with G75A, G103K
heavy 2: B1 heavy 2 with G44E, E105D
B7: iPS:327726 (bispecific antibody, human IgG1, kappa, lambda, N297G)
light 1: EIVLTQSPATLSLSPGERATLSCRASQSVGRSLHWYQQKPGQAPRLLIKYASQSLSGIPARFSGSGSGTDFTLTISSLEPEDFAVYYCHQSSRLPFTFGEGTKVDIKRTVAAPSVFIFPPSDEQLKSGTASVVCLLNNFYPREAKVQWKVDNALQSGNSQESVTEQDSKDSTYSLESTLTLSKADYEKHKVYACEVTHQGLSSPVTKSFNRGEC
heavy 1: not shown
light 2: B1 light 2 with G75A, G103K
heavy 2: B1 heavy 2 with G44E, E105D
B8: iPS:327738 (bispecific antibody, human IgG1, kappa, lambda, N297G)
light 1: B7 light 1
heavy 1: not shown
light 2: B1 light 2 with G103K
heavy 2: B1 heavy 2 with G44E
B9: iPS:327734 (bispecific antibody, human IgG1, kappa, lambda, N297G)
light 1: B7 light 1 with E100P
heavy 1: not shown
light 2: B1 light 2
heavy 2: B1 heavy 2
B10: iPS:327735 (bispecific antibody, human IgG1, kappa, lambda, N297G)
light 1: DIQMTQSPSSLSASVGDRITITCRASQSISRYLNWYQQKPGKAPKLLIYAASSLQSGIPSRFSGSGSGTDFTLTINSLQPEDFATYFCQQSYSPPFTFGEGTKVDIKRTVAAPSVFIFPPSDEQLKSGTASVVCLLNNFYPREAKVQWKVDNALQSGNSQESVTEQDSKDSTYSLESTLTLSKADYEKHKVYACEVTHQGLSSPVTKSFNRGEC
heavy 1: not shown
light 2: B1 light 2 with G103K
heavy 2: B1 heavy 2 with G44E
B11: iPS:327737 (bispecific antibody, human IgG1, kappa, lambda, N297G)
light 1: B1 light 1 with P100E
heavy 1: not shown
light 2: B1 light 2 with G103K
heavy 2: B1 heavy 2 with G44E
B12: iPS:327727 (bispecific antibody, human IgG1, kappa, lambda, N297G)
light 1: not shown
heavy 1: not shown
light 2: B1 light 2 with G75A
heavy 2: B1 heavy 2 with E105D, E370K

Experiments:
[1] = biological target: T1, human PAC1 receptor; experiment: cell-based or functional assay
[2] = biological target: human CGRP receptor (human, UniProt Q16602 23-461; O60894 27-148); experiment: cell-based or functional assay
Chain of human CGRP receptor (Q16602 23-461 limits assumed, chain 1 of 2): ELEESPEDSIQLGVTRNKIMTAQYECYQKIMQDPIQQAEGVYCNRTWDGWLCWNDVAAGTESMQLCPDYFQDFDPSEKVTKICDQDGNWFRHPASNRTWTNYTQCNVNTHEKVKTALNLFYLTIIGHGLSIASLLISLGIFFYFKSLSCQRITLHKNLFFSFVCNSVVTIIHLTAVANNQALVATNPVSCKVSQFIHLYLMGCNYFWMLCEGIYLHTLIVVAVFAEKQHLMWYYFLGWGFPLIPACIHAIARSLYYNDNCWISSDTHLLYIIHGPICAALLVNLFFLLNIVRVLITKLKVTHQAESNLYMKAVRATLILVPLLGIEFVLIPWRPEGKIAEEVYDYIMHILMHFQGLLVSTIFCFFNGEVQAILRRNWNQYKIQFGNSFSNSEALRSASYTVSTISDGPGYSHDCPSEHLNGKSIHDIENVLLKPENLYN
Chain of human CGRP receptor (O60894 27-148 limits assumed, chain 2 of 2): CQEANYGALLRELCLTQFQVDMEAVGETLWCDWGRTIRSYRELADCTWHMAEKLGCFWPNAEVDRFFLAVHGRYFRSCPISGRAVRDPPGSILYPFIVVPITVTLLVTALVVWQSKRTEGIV

Row | Binder | % inhibition of human PAC1 [1] | % inhibition of human CGRPR [2]
1 | B1 | 66% | 84%
2 | B2 | 62% | 64%
3 | B3 | 79% | 80%
4 | B4 | 20% | 88%
5 | B5 | 33% | 80%
6 | B6 | 39% | 86%
7 | B7 | 77% | 91%
8 | B8 | 93% | 85%
9 | B9 | 99% | 82%
10 | B10 | 68% | 81%
11 | B11 | 54% | 82%
12 | B12 | 93% | 93%
